# Laboratory results: publication PMC12344017 (Nature Communications, 2025)
# B1: MscS/YnaI chimera (other, E. coli | Escherichia coli, UniProt P0C0S1 1-31, looked up)
# chain: MEDLNVVDSINGAGSWLVANQALLLSYAVNIIDFICTSLIAVILTIKLFLLINQFEKQQIKKGRDITSARIMSRIIKITIIVVLVLLYGEHFGMSLSGLLTFGGIGGLAVGMAGKDILSNFFSGIMLYFDRPFSIGDWIRSPDRNIEGTVAEIGWRITKITTFDNRPLYVPNSLFSSISVENPGRMTNRRITTTIGLRYEDAAKVGVIVEAVREMLKNHPAIDQRQTLLVYFNQFADSSLNIMVYCFTKTTVWAEWLAAQQDVYLKIIDIVQSHGADFAFPSQTLYMDNITPPEQGR
# Molecular target: the molecule itself
# Assay: cryo-EM structure
protein,measurement,value
B1,binding result,binds
